According to PMC9122601, “A widespread family of WYL-domain transcriptional regulators co-localizes with diverse phage defence systems and islands”:
Each block holds one molecule with its values, some of them ahead of it.

Legend:
[1] = molecular target: His6-BrxR from Escherichia fergusonii (Escherichia fergusonii ATCC 35469); assay: SEC; analytical gel filtration, Superdex 200 Increase GL 5/150, 20 mM Tris-HCl pH 7.9, 150 mM NaCl, 0.175 ml/min; 50 μl samples with 5 μl of 1000 nM protein; oligomeric state from elution volume against calibration standards
[2] = molecular target: His6-BrxR-R17A from Escherichia fergusonii (Escherichia fergusonii ATCC 35469); assay: as above
[3] = molecular target: BrxR from Escherichia fergusonii, untagged (Escherichia fergusonii ATCC 35469); assay: as above
His6-BrxR (BrxR-Efer) [4] = molecular target: T1, His6-BrxR (BrxR-Efer) (Escherichia fergusonii (plasmid pEFER), UniProt B7L3Y3 14-308); assay: EMSA; only non-specific binding at high protein; EMSA: 10 mM Tris-HCl pH 7.9, 150 mM KCl, 0.5 mM EDTA, 0.2 mM DTT, 0.1% Triton X-100, 13% glycerol (1x of 5x buffer), 1 ug poly(dI-dC) per 10 ul, 2500 fmol probe, 25 C 30 min; 7% native PAGE in 0.5x TBE; settings: protein: recombinant; tags: N-terminal His6; chain copies: 2; label: 5' 6-FAM on reverse strand (primer TRB1068); blunt
T1 sequence: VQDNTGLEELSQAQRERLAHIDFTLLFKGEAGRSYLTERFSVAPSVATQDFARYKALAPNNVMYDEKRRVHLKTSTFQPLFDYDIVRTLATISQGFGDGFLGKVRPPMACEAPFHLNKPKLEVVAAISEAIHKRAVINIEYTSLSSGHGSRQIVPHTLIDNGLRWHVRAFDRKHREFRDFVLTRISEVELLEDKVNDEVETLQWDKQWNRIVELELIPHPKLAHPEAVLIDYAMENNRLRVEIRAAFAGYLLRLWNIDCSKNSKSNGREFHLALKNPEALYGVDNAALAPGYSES

His6-BrxR (BrxR-Efer) [5] = molecular target: T1, His6-BrxR (BrxR-Efer); assay: EMSA; EMSA: 10 mM Tris-HCl pH 7.9, 150 mM KCl, 0.5 mM EDTA, 0.2 mM DTT, 0.1% Triton X-100, 13% glycerol (1x of 5x buffer), 1 ug poly(dI-dC) per 10 ul, 2500 fmol probe, 25 C 30 min; 7% native PAGE in 0.5x TBE; settings: protein: recombinant; tags: N-terminal His6; chain copies: 2; label: 5' 6-FAM on reverse strand (primer TRB1068); blunt

stoichiometry N [1]: 2
Molecule: His6-BrxR from Escherichia fergusonii (natural protein)

Molecule: His6-BrxR-R17A from Escherichia fergusonii (natural protein)
stoichiometry N [2]: 2

stoichiometry N [3]: 2
Molecule: BrxR from Escherichia fergusonii, untagged (natural protein)

B1: IR1c-IR2c probe (dsDNA)
DNA 1: GACGACTTGTTGATACTATCCCCCCCCCCCAAAAACCCCCCCCCCCTTGATGGCATTCAATCGATGGCTTAAGCTTTTGTCAGTGCGCA
DNA 2: TGCGCACTGACAAAAGCTTAAGCCATCGATTGAATGCCATCAAGGGGGGGGGGGTTTTTGGGGGGGGGGGATAGTATCAACAAGTCGTC
binding result (His6-BrxR (BrxR-Efer) [4]): no binding

B2: WT IR1-IR2 probe (R7, R-BOX1) (dsDNA)
DNA 1: GACGACTTGTTGATACTATGAAACCTACTGAAAAACAGTAGGTTGCTTGATGGCATTCAATCGATGGCTTAAGCTTTTGTCAGTGCGCA
DNA 2: TGCGCACTGACAAAAGCTTAAGCCATCGATTGAATGCCATCAAGCAACCTACTGTTTTTCAGTAGGTTTCATAGTATCAACAAGTCGTC
Kd (His6-BrxR (BrxR-Efer) [5]): 13 ± 2.7 nM

B3: IR1-IR2c probe (dsDNA)
DNA 1: GACGACTTGTTGATACTATGAAACCTACTGAAAAACCCCCCCCCCCTTGATGGCATTCAATCGATGGCTTAAGCTTTTGTCAGTGCGCA
DNA 2: TGCGCACTGACAAAAGCTTAAGCCATCGATTGAATGCCATCAAGGGGGGGGGGGTTTTTCAGTAGGTTTCATAGTATCAACAAGTCGTC
Kd (His6-BrxR (BrxR-Efer) [5]): 85.5 ± 18.7 nM

B4: IR1c-IR2 probe (dsDNA)
DNA 1: GACGACTTGTTGATACTATCCCCCCCCCCCAAAAACAGTAGGTTGCTTGATGGCATTCAATCGATGGCTTAAGCTTTTGTCAGTGCGCA
DNA 2: TGCGCACTGACAAAAGCTTAAGCCATCGATTGAATGCCATCAAGCAACCTACTGTTTTTGGGGGGGGGGGATAGTATCAACAAGTCGTC
Kd (His6-BrxR (BrxR-Efer) [5]): 24 ± 6.5 nM
